Here are results for 6 molecules from article PMC5045296.

Assay [1] has as its target tubulin (alpha/beta heterodimer), polymerised into microtubules or as free tubulin-dimers (porcine) (UniProt P02550). Put plainly: co-sedimentation; KIF19A protein (printed 'Two micromoles') with 0-40 μM taxol-stabilized MTs in PEM buffer, 25°C, 15 min, AMP-PNP; 38,000 xg 10 min; SDS-PAGE band intensities; one site binding model.
For assay [2] the target is unchanged.
The target is the same in assay [3]. The source holds these as a separate data set.
Assay [4] has the same target. The source holds these as a separate data set.
Assay [5] has the same target. The source holds these as a separate data set.
Assay [6] has the same target. This is another data set of the same source.

B1: KIF19A-353 (mouse KIF19A motor domain, monomeric construct) (domain or fragment)
chain: MKDSGDSKDQQLMVALRVRPISVAELEEGATLIAHKMDEQMVVLMDPMEDPDDILRAHRSREKSYLFDVAFDFTATQEMVYQATTKSLIEGVISGYNATVFAYGPTGCGKTYTMLGTDHEPGIYVRTLNDLFRAIEETSNDMEYEVSMSYLEIYNEMIRDLLNPALGYLELREDSKGVIQVAGITEVSTINAKEIMQLLMKGNRQRTQEPTAANQTSSRSHAVLQVAVRQRSRVKNILQEVRQGRLFMIDLAGSERASQTQNRGQRMKEGAHINRSLLALGNCINALSDKGSNKYINYRDSKLTRLLKDSLGGNSRTVMIAHISPASTAFEESRNTLTYAGRAKNIRTRVKQN
Take B1: in assay [1], the Kd is 600 nM. In assay [2], this molecule registered an MT-stimulated steady-state ATPase, maximum rate of 1.43 s⁻¹ and a steady-state ATPase stimulated by free tubulin-dimers, maximum rate of 0.8 s⁻¹.

B2: KIF19A-353 N297P (domain or fragment)
chain: MKDSGDSKDQQLMVALRVRPISVAELEEGATLIAHKMDEQMVVLMDPMEDPDDILRAHRSREKSYLFDVAFDFTATQEMVYQATTKSLIEGVISGYNATVFAYGPTGCGKTYTMLGTDHEPGIYVRTLNDLFRAIEETSNDMEYEVSMSYLEIYNEMIRDLLNPALGYLELREDSKGVIQVAGITEVSTINAKEIMQLLMKGNRQRTQEPTAANQTSSRSHAVLQVAVRQRSRVKNILQEVRQGRLFMIDLAGSERASQTQNRGQRMKEGAHINRSLLALGNCINALSDKGSNKYIPYRDSKLTRLLKDSLGGNSRTVMIAHISPASTAFEESRNTLTYAGRAKNIRTRVKQN
Molecule B2 gave a tubulin-stimulated ATPase rate, against the wild type (of the wild type) in assay [3] of 0.5.

B3: KIF19A-353 K2A (K290 and K294 replaced with alanine) (domain or fragment)
chain: MKDSGDSKDQQLMVALRVRPISVAELEEGATLIAHKMDEQMVVLMDPMEDPDDILRAHRSREKSYLFDVAFDFTATQEMVYQATTKSLIEGVISGYNATVFAYGPTGCGKTYTMLGTDHEPGIYVRTLNDLFRAIEETSNDMEYEVSMSYLEIYNEMIRDLLNPALGYLELREDSKGVIQVAGITEVSTINAKEIMQLLMKGNRQRTQEPTAANQTSSRSHAVLQVAVRQRSRVKNILQEVRQGRLFMIDLAGSERASQTQNRGQRMKEGAHINRSLLALGNCINALSDAGSNAYINYRDSKLTRLLKDSLGGNSRTVMIAHISPASTAFEESRNTLTYAGRAKNIRTRVKQN
B3: the Kd in assay [1] is 3000 nM. In assay [4], this molecule returned an EC50 of depolymerization of GMPCPP-stabilized MTs (5 mM ATP) of 678 nM and an MT depolymerization speed (TIRF, 125 nM motor) of 2 nm/s.

B4: KIF19A-353 L55A (domain or fragment)
chain: MKDSGDSKDQQLMVALRVRPISVAELEEGATLIAHKMDEQMVVLMDPMEDPDDIARAHRSREKSYLFDVAFDFTATQEMVYQATTKSLIEGVISGYNATVFAYGPTGCGKTYTMLGTDHEPGIYVRTLNDLFRAIEETSNDMEYEVSMSYLEIYNEMIRDLLNPALGYLELREDSKGVIQVAGITEVSTINAKEIMQLLMKGNRQRTQEPTAANQTSSRSHAVLQVAVRQRSRVKNILQEVRQGRLFMIDLAGSERASQTQNRGQRMKEGAHINRSLLALGNCINALSDKGSNKYINYRDSKLTRLLKDSLGGNSRTVMIAHISPASTAFEESRNTLTYAGRAKNIRTRVKQN
Regarding B4, the Kd in assay [1] came to 1600 nM.

B5: KIF19A-353 GS2R (G291 and S292 mutated to arginine) (domain or fragment)
chain: MKDSGDSKDQQLMVALRVRPISVAELEEGATLIAHKMDEQMVVLMDPMEDPDDILRAHRSREKSYLFDVAFDFTATQEMVYQATTKSLIEGVISGYNATVFAYGPTGCGKTYTMLGTDHEPGIYVRTLNDLFRAIEETSNDMEYEVSMSYLEIYNEMIRDLLNPALGYLELREDSKGVIQVAGITEVSTINAKEIMQLLMKGNRQRTQEPTAANQTSSRSHAVLQVAVRQRSRVKNILQEVRQGRLFMIDLAGSERASQTQNRGQRMKEGAHINRSLLALGNCINALSDKRRNKYINYRDSKLTRLLKDSLGGNSRTVMIAHISPASTAFEESRNTLTYAGRAKNIRTRVKQN
The molecule B5 yielded a Kd in assay [1] of 600 nM. In addition, the Michaelis-Menten constant of the ATPase for MTs and for tubulins, against 353WT (times lower than 353WT) in assay [5] stood at 4.

B6: KIF19A-353 PC2A (R56A-H58A-R59A-R61A) (domain or fragment)
chain: MKDSGDSKDQQLMVALRVRPISVAELEEGATLIAHKMDEQMVVLMDPMEDPDDILAAAASAEKSYLFDVAFDFTATQEMVYQATTKSLIEGVISGYNATVFAYGPTGCGKTYTMLGTDHEPGIYVRTLNDLFRAIEETSNDMEYEVSMSYLEIYNEMIRDLLNPALGYLELREDSKGVIQVAGITEVSTINAKEIMQLLMKGNRQRTQEPTAANQTSSRSHAVLQVAVRQRSRVKNILQEVRQGRLFMIDLAGSERASQTQNRGQRMKEGAHINRSLLALGNCINALSDKGSNKYINYRDSKLTRLLKDSLGGNSRTVMIAHISPASTAFEESRNTLTYAGRAKNIRTRVKQN
On to B6, for which the Kd in assay [1] stood at 5800 nM. Besides, the K (M, MT) of the MT-stimulated ATPase, against 353WT (times that of 353WT) in assay [6] was 30.

What is called Kd is the constant that tells how readily two partners part at equilibrium. A higher Kd goes with weaker binding.
